Test results published in paper PMC4466255, “Direct Ionic Regulation of the Activity of Myo-Inositol Biosynthesis Enzymes in Mozambique Tilapia” (PLoS ONE, 2015).

Tests used:
MIPS-160 = target: T1, MIPS-160 (Oreochromis mossambicus, UniProt Q1KN76); experiment: activity with or without NAD+; format: biochemical; settings: G6P as substrate; 28°C
T1 construct: full-length CDS from seawater-acclimated gill cDNA, pET24a, 6xHis tag kept (C-terminal in Results, amino-terminal in Methods), E. coli Rosetta 2(DE3)pLysS, 61 kDa
T1 sequence (Q1KN76 1-518): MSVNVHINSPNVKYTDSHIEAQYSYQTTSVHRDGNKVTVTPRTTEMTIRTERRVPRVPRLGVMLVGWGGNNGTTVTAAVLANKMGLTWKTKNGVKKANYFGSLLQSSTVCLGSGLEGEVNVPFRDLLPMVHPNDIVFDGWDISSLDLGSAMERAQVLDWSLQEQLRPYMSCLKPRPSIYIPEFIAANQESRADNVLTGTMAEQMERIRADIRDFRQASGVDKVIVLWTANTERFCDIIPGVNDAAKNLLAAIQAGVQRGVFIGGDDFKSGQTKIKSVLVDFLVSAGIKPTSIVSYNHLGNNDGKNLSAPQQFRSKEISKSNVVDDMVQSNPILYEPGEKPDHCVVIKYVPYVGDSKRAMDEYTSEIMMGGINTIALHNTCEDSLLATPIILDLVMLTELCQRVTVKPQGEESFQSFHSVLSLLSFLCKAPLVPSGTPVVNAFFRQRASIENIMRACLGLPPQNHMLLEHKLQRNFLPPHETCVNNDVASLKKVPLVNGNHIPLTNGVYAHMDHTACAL

[1] = substrate: O=P(O)(O)O[C@@H]1[C@@H](O)[C@H](O)[C@@H](O)[C@H](O)[C@@H]1O; experiment: Pi release, BioMol Green, Michaelis-Menten fit; format: biochemical, Oreochromis mossambicus; settings: 50 mM Tris-HCl pH 8.2, 50 mM NaCl, 1 mM MgCl2, 28°C, standard buffer IAB, 220 mOsm
Text: (§1) Pi release, BioMol Green, Michaelis-Menten fit on IMPase 1

[2] = substrate: O=P(O)(O)O[C@@H]1[C@H](O)[C@H](O)[C@@H](O)[C@H](O)[C@H]1O; experiment: Pi release, BioMol Green, Michaelis-Menten fit; format: biochemical, Oreochromis mossambicus; settings: 50 mM Tris-HCl pH 8.2, 50 mM NaCl, 1 mM MgCl2, 28°C, standard buffer IAB, 220 mOsm
Text: as §1

`NC(=O)c1ccc[n+]([C@@H]2O[C@H](COP(=O)(O)OP(=O)(O)OC[C@H]3O[C@@H](n4cnc5c(N)ncnc54)[C@H](O)[C@@H]3O)[C@@H](O)[C@H]2O)c1` [NAD^+] was tested, and the “activity with or without NAD+” value (MIPS-160) was “MIPS-160 activity depends on NAD^+ (Fig 5B)”.

B1: IMPase 1 (Oreochromis mossambicus) (protein)
chain: MEDPWQKAYDFAVAVARKAGAEIRKAGESEIRVMTKSSTVDLVTKTDERVEKIIIGSLKEEFGEGTHCFIGEESVAKGEPCILTDKPTWIIDPVDGTTNFVHGFPFVAVSIAFAVNKELEFGVVYSCLEDKMYKARKGKGAFCDNEPIAVSDVKDINRSIIIFEHGTDRSPEKVTKIFFTMQKILCIPVHGLRGSGTAGYKQCLVVIGGSEGVFDIGIHCWDIAAGADIVKEAGGILLDVDGGPFDLMSRRMVSANNETIAKRIIKEIEIFPVVRDDAPIEKK
notes: full-length CDS from seawater-acclimated gill cDNA, pET24a, 6xHis tag kept (C-terminal in Results, amino-terminal in Methods), E. coli Rosetta 2(DE3)pLysS, 32 kDa
For B1, the Km [1] was 930 ± 350 µM, the Vmax [1] was 0.0027 ± 0.0006 nmol/s and the kcat [1] was 0.962 ± 0.102 s⁻¹. For the same molecule, the kcat/Km [1] was 1050 ± 200 M⁻¹ s⁻¹, the Km [2] was 538 ± 74 µM and the Vmax [2] was 0.0073 ± 0.0007 nmol/s. It also gave a kcat [2] of 2.585 ± 0.112 s⁻¹ and a kcat/Km [2] of 4800 ± 1100 M⁻¹ s⁻¹.
